The target of test [1] is full-length 26 kDa (227 amino acids) OSM (human). In words: SPR. In general terms: Surface plasmon resonance follows binding to a sensor surface in real time, without labels.
Test [2] has as its target 22 kDa (196 amino acids) OSM (human) (UniProt P13725). As to the kind of experiment: SPR.

Sequence of fibronectin, P02751 32-2477 (natural protein; ; other documents disagree on this pair) (P02751 32-2477): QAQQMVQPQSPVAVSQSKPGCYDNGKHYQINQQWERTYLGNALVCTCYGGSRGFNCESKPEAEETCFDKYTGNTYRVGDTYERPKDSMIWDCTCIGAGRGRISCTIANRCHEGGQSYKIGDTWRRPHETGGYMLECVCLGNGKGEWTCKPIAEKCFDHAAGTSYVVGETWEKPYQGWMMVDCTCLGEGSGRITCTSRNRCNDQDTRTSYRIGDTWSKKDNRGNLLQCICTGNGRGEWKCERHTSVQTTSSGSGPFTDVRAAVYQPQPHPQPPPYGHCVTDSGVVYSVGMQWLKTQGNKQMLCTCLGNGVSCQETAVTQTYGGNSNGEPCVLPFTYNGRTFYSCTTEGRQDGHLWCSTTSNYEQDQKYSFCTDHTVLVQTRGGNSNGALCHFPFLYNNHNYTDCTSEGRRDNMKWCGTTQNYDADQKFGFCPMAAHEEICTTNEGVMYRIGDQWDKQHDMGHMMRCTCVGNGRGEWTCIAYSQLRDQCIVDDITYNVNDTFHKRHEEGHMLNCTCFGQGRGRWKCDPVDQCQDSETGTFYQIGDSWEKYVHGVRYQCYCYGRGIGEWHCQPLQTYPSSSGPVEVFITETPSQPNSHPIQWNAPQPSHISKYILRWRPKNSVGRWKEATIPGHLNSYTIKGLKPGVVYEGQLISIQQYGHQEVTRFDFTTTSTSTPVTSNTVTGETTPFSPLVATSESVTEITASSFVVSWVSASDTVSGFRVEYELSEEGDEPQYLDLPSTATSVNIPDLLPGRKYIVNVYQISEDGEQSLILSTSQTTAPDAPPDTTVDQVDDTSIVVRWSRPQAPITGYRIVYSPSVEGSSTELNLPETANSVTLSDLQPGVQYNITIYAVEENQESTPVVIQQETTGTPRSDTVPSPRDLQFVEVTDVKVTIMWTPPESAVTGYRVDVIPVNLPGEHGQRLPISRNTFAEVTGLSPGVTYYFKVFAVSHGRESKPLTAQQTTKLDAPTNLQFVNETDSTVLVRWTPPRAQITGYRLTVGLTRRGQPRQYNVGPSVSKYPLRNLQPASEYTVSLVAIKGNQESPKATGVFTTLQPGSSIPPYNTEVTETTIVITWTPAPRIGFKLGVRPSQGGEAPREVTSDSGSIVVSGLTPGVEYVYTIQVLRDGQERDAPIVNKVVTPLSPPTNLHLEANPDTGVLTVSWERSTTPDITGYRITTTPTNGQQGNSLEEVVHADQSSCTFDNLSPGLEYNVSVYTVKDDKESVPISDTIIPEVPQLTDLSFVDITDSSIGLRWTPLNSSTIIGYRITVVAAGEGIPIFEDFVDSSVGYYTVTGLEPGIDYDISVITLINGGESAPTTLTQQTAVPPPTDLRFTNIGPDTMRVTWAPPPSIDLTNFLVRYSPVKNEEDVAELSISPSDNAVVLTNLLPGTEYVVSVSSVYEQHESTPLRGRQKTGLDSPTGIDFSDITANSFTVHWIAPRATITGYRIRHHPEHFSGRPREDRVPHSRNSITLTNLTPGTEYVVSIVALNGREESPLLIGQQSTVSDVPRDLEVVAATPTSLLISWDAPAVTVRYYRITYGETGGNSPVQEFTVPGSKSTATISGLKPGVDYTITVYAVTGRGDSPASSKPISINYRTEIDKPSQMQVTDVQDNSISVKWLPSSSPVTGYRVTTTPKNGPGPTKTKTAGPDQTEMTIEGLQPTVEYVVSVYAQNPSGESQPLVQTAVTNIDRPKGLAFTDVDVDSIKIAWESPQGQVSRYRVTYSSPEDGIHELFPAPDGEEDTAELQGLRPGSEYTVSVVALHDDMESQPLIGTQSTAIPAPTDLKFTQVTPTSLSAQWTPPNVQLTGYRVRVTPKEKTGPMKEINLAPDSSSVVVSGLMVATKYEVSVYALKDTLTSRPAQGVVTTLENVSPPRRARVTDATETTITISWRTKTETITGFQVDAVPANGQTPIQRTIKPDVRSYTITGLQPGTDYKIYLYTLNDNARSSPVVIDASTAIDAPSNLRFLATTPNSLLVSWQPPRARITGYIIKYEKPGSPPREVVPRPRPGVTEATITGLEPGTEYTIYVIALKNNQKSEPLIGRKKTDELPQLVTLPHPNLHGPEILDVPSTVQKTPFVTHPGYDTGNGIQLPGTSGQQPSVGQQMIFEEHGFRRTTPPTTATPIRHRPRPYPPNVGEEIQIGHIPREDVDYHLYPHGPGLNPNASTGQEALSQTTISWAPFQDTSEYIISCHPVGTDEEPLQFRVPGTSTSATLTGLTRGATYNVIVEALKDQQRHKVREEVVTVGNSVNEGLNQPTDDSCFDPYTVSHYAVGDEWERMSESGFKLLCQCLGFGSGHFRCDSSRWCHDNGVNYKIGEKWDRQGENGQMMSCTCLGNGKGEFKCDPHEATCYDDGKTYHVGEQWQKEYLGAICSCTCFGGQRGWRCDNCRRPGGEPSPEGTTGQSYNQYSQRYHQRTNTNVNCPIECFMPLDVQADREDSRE
Sequence of 22 kDa (196 amino acids) OSM (human) (P13725 26-221): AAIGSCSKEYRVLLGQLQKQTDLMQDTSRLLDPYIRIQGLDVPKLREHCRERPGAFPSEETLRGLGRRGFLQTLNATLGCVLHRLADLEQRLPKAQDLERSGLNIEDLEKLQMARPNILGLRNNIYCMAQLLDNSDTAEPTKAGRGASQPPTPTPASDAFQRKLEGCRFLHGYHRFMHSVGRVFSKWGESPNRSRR

Turning to “fibronectin, P02751 32-2477 (natural protein; ; other documents disagree on this pair)”, the Kd in test [1] came out at 1170 µM.

For the substance laminin (complex), the Kd stood at 0.844 µM in test [1] and 0.936 µM in test [2].

As usually defined, the Kd is the free concentration of one partner at which half of the binding sites on the other are occupied at equilibrium, for simple one-to-one binding. A lower Kd goes with higher affinity.

Source of the values: PMC4328881.
